Test results reported in patent US20060172958A1 (published 2006).

B1: lamin C control bait (pAS2-lamin C) (other, UniProt P02545-2 66-230, looked up)
chain: SEEVVSREVSGIKAAYEAELGDARKTLDSVAKERARLQLELSKVREEFKELKARNTKKEGDLIAAQARLKDLEALLNSKEAALSTALSEKRTLEGELHDLRGQVAKLEAALGEAKKQLQDEMLRRVDAENRLQTMKEELDFQKNIYSEELRETKRRHETRLVEID
notes: also called control bait lamin C; not shown: bait fusion partner encoded by the pAS2 vector
B2: phospholipid scramblase 3 (PLS3), human, isoform not stated (enzyme)
chain: not shown
modifications: phosphothreonine, position not stated (shown by the anti-PT blot of immunoprecipitated PLS3)
notes: also called endogenous PLS3; wild-type PLS3

Key:
[1] = target: T1, yeast two-hybrid library clone encoding amino acids 103-277 of phospholipid scramblase 3 (human, UniProt Q9NRY6 103-277); experiment: yeast two-hybrid
T1 construct: also called PLS3 clone; cDNA cloned from the yeast two-hybrid screen; not shown: fusion partner of the Clontech MatchMaker human liver library vector

[2] = target: c-abl kinase (UniProt P00519 1-1130, limits assumed); experiment: co-immunoprecipitation with PLS3 antibody, Western blot with c-abl antibody
Sequence of c-abl kinase (P00519 whole entry): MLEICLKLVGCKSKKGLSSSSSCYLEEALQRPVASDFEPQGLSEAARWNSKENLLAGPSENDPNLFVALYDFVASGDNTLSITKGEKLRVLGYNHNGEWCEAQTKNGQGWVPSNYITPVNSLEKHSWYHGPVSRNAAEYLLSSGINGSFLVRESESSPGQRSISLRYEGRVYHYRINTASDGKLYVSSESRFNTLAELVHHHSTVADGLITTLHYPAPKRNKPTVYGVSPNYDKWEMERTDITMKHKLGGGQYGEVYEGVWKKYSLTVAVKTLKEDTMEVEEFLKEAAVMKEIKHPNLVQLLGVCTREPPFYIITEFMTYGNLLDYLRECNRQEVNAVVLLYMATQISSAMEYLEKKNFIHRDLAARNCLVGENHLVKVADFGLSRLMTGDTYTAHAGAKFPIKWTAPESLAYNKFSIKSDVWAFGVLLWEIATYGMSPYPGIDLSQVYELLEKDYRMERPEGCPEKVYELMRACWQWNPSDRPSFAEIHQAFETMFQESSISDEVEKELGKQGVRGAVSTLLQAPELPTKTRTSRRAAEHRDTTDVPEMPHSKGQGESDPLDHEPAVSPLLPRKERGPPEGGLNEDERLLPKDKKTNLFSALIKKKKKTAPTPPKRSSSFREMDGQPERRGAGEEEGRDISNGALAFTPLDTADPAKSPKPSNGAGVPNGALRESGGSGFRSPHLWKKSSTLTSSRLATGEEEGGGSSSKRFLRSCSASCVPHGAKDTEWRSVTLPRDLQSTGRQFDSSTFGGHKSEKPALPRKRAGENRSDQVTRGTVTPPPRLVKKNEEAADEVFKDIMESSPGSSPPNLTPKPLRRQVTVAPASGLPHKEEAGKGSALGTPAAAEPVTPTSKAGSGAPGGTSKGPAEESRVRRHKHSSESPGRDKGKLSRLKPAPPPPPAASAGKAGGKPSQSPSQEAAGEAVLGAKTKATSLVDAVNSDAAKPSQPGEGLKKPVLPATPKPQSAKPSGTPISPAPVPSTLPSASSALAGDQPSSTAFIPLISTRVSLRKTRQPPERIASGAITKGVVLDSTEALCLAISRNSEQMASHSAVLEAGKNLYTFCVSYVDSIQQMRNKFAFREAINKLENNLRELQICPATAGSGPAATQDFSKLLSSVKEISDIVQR

T1 sequence (Q9NRY6 103-277): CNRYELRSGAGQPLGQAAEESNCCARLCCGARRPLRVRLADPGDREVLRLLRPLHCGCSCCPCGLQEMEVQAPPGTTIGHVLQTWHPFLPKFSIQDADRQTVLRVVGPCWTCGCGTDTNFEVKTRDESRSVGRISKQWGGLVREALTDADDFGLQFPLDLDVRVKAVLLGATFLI

Binder | binding result [1] | binding result [2]
B1 | no binding | –
B2 | – | no binding
